{"source": "paper PMC3074123", "key": {"[1]": {"molecular_target": "EndA(H160G/R209A/K210A) (Streptococcus pneumoniae, UniProt P0A3S3 31-274, H160G;R209A;K210A)", "test": "EMSA"}, "[2]": {"molecular_target": "EndA(H160G/R127A/K128A) (Streptococcus pneumoniae, UniProt P0A3S3 31-274, H160G;R127A;K128A)", "test": "EMSA"}}}
{"binder": "24 bp duplex (dsDNA) DNA 1: GCAAGGTGCGTGCAGCCTTGGACC DNA 2: GGTCCAAGGCTGCACGCACCTTGC", "values": [{"measurement": "binding result", "setting": "[1]", "result": "no binding"}, {"measurement": "binding result", "setting": "[2]", "result": "no binding"}]}
